{
  "source": "patent US9938503B2",
  "about": "“Differentiation of human iPS cells to human alveolar type II via definitive endoderm” (YALE UNIVERSITY, priority 2012, dated 2018)",
  "key": {"iPSC-AETII cells": {"tested_on": "iPSC-AETII cells", "assay": "Differentiation of iPSC-derived AETII cells to AETI cells with IWR-1", "format": "cell-based, human", "experimental": "Differentiated cells at day 22 were then maintained in DMEM medium with 10% FBS, 2 mM L-glutamine, 1 mM nonessential amino acids, 1% antibiotic-antimycotic and […] IWR-1 for 7 days.\n(§1) For flow cytometry, cells were dissociated into single-cell suspensions by incubation with 0.25% trypsin for 2 min, and fixed (Fixation/Permeabilization kit, BD Biosciences). After blocking for 30 min on ice, the cells were incubated with primary antibody in blocking solution for 30 min on ice. The cells were resuspended in 350 μl of Perm/Wash buffer after incubation with conjugated secondaries for 30 min on ice, washed twice, and analyzed by flow cytometry. See Table 1 for antibody information.\n(§2) Total RNA was extracted using the RNeasy Mini Kit from Qiagen, following the manufacturer's instructions. First-strand complementary DNA (cDNA) was synthesized with random hexamers as primers, using SuperScript First-Strand Synthesis System according to manufacturer's protocol (Invitrogen). Each sample was run in triplicate with iQ™ SYBR Green Supermix (Bio-Rad). PCR conditions included an initial denaturation step of 4 min at 95° C., followed by 40 cycles of PCR consisting of 15s at 95° C., 30 s at 60° C., and 30 s at 72° C. Average threshold cycle (Ct) values from the triplicate PCR reactions for a gene of interest (GOI) were normalized against average GAPDH Ct values from the same cDNA sample. Fold change of GOI transcript levels between sample A and sample B equals 2^−ΔΔCt, where ΔCt=Ct(GOI)−Ct(GAPDH), and ΔΔCt=ΔCt(A)−ΔCt(B)."}, "iPSC-derived DE cells": {"tested_on": "iPSC-derived DE cells", "assay": "Extracellular matrix protein effects on DE cell adhesion and differentiation", "format": "cell-based, human", "conditions": "ECM-coated plates, media with NOGGIN/SB-431542", "experimental": "(§3) DE generated by exposure to activin A were trypsinized, reseeded at a ratio of 1:1-2 on human ECM protein-coated plates and differentiated to anterior foregut endoderm with IMDM+5% FBS, 2 mM L-glutamine, 1 mM nonessential amino acids, 1% antibiotic-antimycotic supplemented with 200 ng/ml NOGGIN and […] SB-431542 for 2 days (Longmire T A, et al. 2012. Cell Stem Cell 10(4):398-411, Green M D, et al. 2011. Nat Biotechnol 29(3):267-272).\nas §2, with “ΔΔCt=ΔCt(A)−ΔCt(B). […]” for “ΔΔCt=ΔCt(A)−ΔCt(B).”"}, "[1]": {"tested_on": "iPSC-derived definitive endoderm cells", "assay": "Differentiation of definitive endoderm to anterior foregut endoderm with NOGGIN/SB-431542, flow cytometry", "format": "cell-based, human", "experimental": "as §3, §1"}, "[2]": {"tested_on": "human iPS cells (C1 and C2 clones)", "assay": "Differentiation of iPS cells to definitive endoderm with activin A, flow cytometry", "format": "cell-based", "conditions": "for endodermal cells based on dual expression of SOX17 and FOXA2: day 6", "experimental": "Human iPSCs were differentiated to alveolar epithelium in a directed differentiation protocol via definitive endoderm (DE) and anterior foregut endoderm (AFE). iPS cells were differentiated towards definitive endoderm under conditions described previously (Duan Y, et al. 2010. Stem Cells 28(4):674-686, Kubo A, et al. 2004. Development. 131(7):1651-1662). Briefly, h-iPSC were cultured in RPMI 1640 medium supplemented with 100 ng/ml activin A, 2 mM L-glutamine and 1% antibiotic-antimycotic for 48 hours; 1xB27 supplement, 0.5 mM sodium butyrate and 0.1% FBS were added into the same medium and the cells were cultured for another 4 days, with daily medium changes (D'Amour K A, et al. 2005. Nat Biotechnol 23(12):1534-1541).\nas §1"}, "[3]": {"conditions": "100 mM IWR-1 for 7 days from day 22, flow cytometry, C1 clone"}, "[4]": {"conditions": "continuous activin A from day 6 to day 8 without NOGGIN/SB-431542"}, "[5]": {"conditions": "C1 clone, day 6, 100 ng/ml activin A, flow cytometry"}, "[6]": {"conditions": "C2 clone, day 6, 100 ng/ml activin A, flow cytometry"}},
  "data": [
    {"molecule": "O=C(Nc1cccc2cccnc12)c1ccc(N2C(=O)[C@@H]3[C@H](C2=O)[C@@H]2C=C[C@H]3C2)cc1", "note": "[IWR-1]", "values": [
      {"measurement": "cells expressing T1α", "setting": "iPSC-AETII cells; [3]", "value": "≤ 88", "unit": "%"},
      {"measurement": "cells positive for aquaporin-5 (AQ5)", "setting": "iPSC-AETII cells; [3]", "value": "up to 92%"},
      {"measurement": "cells positive for caveolin-1", "setting": "iPSC-AETII cells; [3]", "value": "≤ 98", "unit": "%"},
      {"measurement": "AETI cells positive for the type I markers T1α and caveolin-1", "setting": "iPSC-AETII cells; AETII exposed to Wnt/β-catenin inhibitor", "value": "more than 90%"},
      {"measurement": "AETI markers AQ5, T1α and caveolin-1 by immunostaining", "setting": "iPSC-AETII cells; IWR-1 treated versus untreated AETII", "value": "significant increase"},
      {"measurement": "AETII cell marker SPC", "setting": "iPSC-AETII cells; after IWR-1, flow cytometry", "value": "decreased significantly"},
      {"measurement": "expression of type I cell markers by quantitative RT-PCR", "setting": "iPSC-AETII cells; iPSC-AETII cells exposed to IWR-1 versus freshly isolated human primary alveolar type I cells", "value": "comparable to expression levels of freshly isolated human primary alveolar type I cells"}
    ]},
    {"molecule": "Fibronectin", "values": [
      {"measurement": "DE cell attachment", "setting": "iPSC-derived DE cells", "value": "attach well"}
    ]},
    {"molecule": "laminin", "values": [
      {"measurement": "DE cell attachment", "setting": "iPSC-derived DE cells", "value": "attach well"}
    ]},
    {"molecule": "activin A: soluble cytokine activating the nodal receptor, used at 100 ng/ml to induce definitive endoderm (protein, UniProt P08476 311-426, looked up, Inhibin beta A chain) Inhibin beta A chain: GLECDGKVNICCKKQFFVSFKDIGWNDWIIAPSGYHANYCEGECPSHIAGTSGSSLSFHSTVINHYRMRGHSPFANLKSCCVPTKLRPMSMLYYDDGQNIIKKDIQNMIVEECGCS", "values": [
      {"measurement": "cells positive for NKX2.1", "setting": "[1]; activin A induced cells without NOGGIN/SB-431542, day 13", "value": "< 1", "unit": "%"},
      {"measurement": "FOXA2+/SOX2+ cells", "setting": "[1]; [4]", "value": "rare"},
      {"measurement": "NKX2.1+ cells", "setting": "[1]; [4]", "value": "few"},
      {"measurement": "endodermal cells based on dual expression of SOX17 and FOXA2", "setting": "[2]; C1 clone", "value": "more than 85%"},
      {"measurement": "percentage of cells expressing CXCR4", "setting": "[2]; [5]", "value": "92.71±4.0", "unit": "%"},
      {"measurement": "percentage of cells expressing FOXA2", "setting": "[2]; [5]", "value": "87.66±1.2", "unit": "%"},
      {"measurement": "endodermal cells based on dual expression of SOX17 and FOXA2", "setting": "[2]; C2 clone", "value": "> 89", "unit": "%"},
      {"measurement": "percentage of cells expressing CXCR4", "setting": "[2]; [6]", "value": "87.23±2.0", "unit": "%"},
      {"measurement": "percentage of cells expressing FOXA2", "setting": "[2]; [6]", "value": "83.54±1.8", "unit": "%"},
      {"measurement": "percentage of cells expressing SOX17", "setting": "[2]; [6]", "value": "91.42±3.0", "unit": "%"}
    ]}
  ]
}
